Data: paper PMC7801473 (2021)

B1: NLRP1^CARD (M2H fusion) [human] / ASC^CARD (M2H fusion) [human] (parent complex)
chain 1: DAPQLLHFVDQYREQLIARVTSVEVVLDKLHGQVLSQEQYERVLAENTRPSQMRKLFSLSQSWDRKCKDGLYQALKETHPHLIMELWEKG
chain 2: AAKPGLHFIDQHRAALIARVTNVEWLLDALYGKVLTDEQYQAVRAEPTNPSKMRKLFSFTPAWNWTCKDLLLQALRESQSYLVEDLERS
B2: ASC^CARD (M2H fusion) [human] / NLRP1^CARD (M2H fusion) [human] (parent complex)
chain 1: B1 chain 2
chain 2: B1 chain 1

Variants of: B1
Assay: M2H (mammalian two-hybrid, luciferase); HEK293T cells; GAL(DBD)-ASC^CARD with VP16-NLRP1^CARD; luciferase normalized to Renilla; parent: 3; read off a plot

| Variant | response |
| --- | --- |
| chain 1 DAPQLLHFVDQYREQLIARVTSVEVVLDKLHGQVLSQEQYERVLAENTRPSQMAKLFSLSQSWDRKCKDGLYQALKETHPHLIMELWEKG | ~1.5 fold of negative control |
| chain 1 DAPQLLHFVDQYREQLIARVTSVEVVLDKLHGQVLSAEQYRRVLAENTRPSQMRKLFSLSQSWDRKCKDGLYQALKETHPHLIMELWEKG | ~1.7 fold of negative control |
| chain 1 DAPQLLHFVDQYREQLIAAVTSVEVVLDKLHGQVLSQEQYERVLAENTAPSQMRKLFSLSQSWDRKCKDGLYQALKETHPHLIMELWEKG | ~1.8 fold of negative control |
| chain 1 DAPQLLHFVDQYREQLIARVTSVRVVLKKLHGQVLSQEQYERVLAENTRPSQMRKLFSLSQSWDRKCKDGLYQALKETHPHLIMELWEKG | ~0.77 fold of negative control |
| chain 1 DAPQLLHFVDQYREQLIARVTSVEVVLDKLHGQVLSQEQYERVLAENTRPSQMRKLFSLSQSGKRKCKDGLYQALKETHPHLIMELWEKG | ~0.97 fold of negative control |
| chain 1 DAPQLLHFVDQYREQLIAAVTSVEVVLDKLHGQVLSQEQYERVLAENTRPSQMRKLFSLSQSWDRKCKDGLYQALKETHPHLIMELWEKG | ~1.1 fold of negative control |
| chain 1 DAPQLLHFVDQYREQLIARVTSVEVVLDKLHGQVLSQEQYERVLAENTRPSQMRKLFSLSQSWDRKCKDGLYQALKETHPELIMELWEKG | ~0.98 fold of negative control |

Variants of: B2
Assay: M2H (mammalian two-hybrid, luciferase); HEK293T cells; GAL(DBD)-NLRP1^CARD with VP16-ASC^CARD; luciferase normalized to Renilla; parent: 2.1; read off a plot

| Variant | response |
| --- | --- |
| chain 1 AAKPGLHFIDQHRAALIARVTNVEWLLDALYGKVLTDEQYQAVRAEPTNPSKMRKLFSFTPAGAWTCKDLLLQALRESQSYLVEDLERS | ~1.2 fold of negative control |
| chain 1 AAKPGLHFIDQHRAALIARVTNVEWLLDALYGKVLTAAQYQAVRAEPTNPSKMRKLFSFTPAWNWTCKDLLLQALRESQSYLVEDLERS | ~1.4 fold of negative control |
| chain 1 AAKPGLHFIDQHRAALIARVTAVRWLLDALYGKVLTDEQYQAVRAEPTNPSKMRKLFSFTPAWNWTCKDLLLQALRESQSYLVEDLERS | ~0.8 fold of negative control |
| chain 1 AAKPGLHFIDQHRAALIARVTNVEWLLKALYGKVLTDEQYQAVRAEPTNPSKMRKLFSFTPAWNWTCKDLLLQALRESQSYLVEDLERS | ~0.78 fold of negative control |
| chain 1 AAKPGLHFIDQHRAALIAAVANVEWLLDALYGKVLTDEQYQAVRAEPTNPSKMRKLFSFTPAWNWTCKDLLLQALRESQSYLVEDLERS | ~1.1 fold of negative control |
| chain 1 AAKPGLHFIDQHRAALIARVTNVEWLLDALYGKVLTDEQYQAVRAEPTNPSKMEKLFSFTPAWNWTCKDLLLQALRESQSYLVEDLERS | ~0.87 fold of negative control |
| chain 1 AAKPGLHFIDQHDAALIARVTNVEWLLDALYGKVLTDEQYQAVRAEPTNPSKMRKLFSFTPAWNWTCKDLLLQALRESQSYLVEDLERS | ~0.57 fold of negative control |
